Like-named read-outs stand apart in the source and are kept apart here.
Experiments:
Assay in all cases: cell-based or functional assay
[1] = biological target: IL-11:IL-11Rα fusion protein
human IL-11 (human) = human IL-11 (human) (UniProt P20809)
murine IL-11 (mouse) [2] = biological target: T1, murine IL-11 (mouse) (UniProt P47873)
T1 sequence (looked up): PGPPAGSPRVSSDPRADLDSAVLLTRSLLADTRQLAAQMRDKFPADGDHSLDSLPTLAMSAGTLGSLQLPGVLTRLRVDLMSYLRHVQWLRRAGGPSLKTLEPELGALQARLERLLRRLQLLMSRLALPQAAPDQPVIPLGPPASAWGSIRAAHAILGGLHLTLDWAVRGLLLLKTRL

murine IL-11 (mouse) [3] = biological target: T1, murine IL-11 (mouse); remark: listed apart in the source

Chain of IL-11:IL-11Rα fusion protein (chain, as listed by the source limits assumed): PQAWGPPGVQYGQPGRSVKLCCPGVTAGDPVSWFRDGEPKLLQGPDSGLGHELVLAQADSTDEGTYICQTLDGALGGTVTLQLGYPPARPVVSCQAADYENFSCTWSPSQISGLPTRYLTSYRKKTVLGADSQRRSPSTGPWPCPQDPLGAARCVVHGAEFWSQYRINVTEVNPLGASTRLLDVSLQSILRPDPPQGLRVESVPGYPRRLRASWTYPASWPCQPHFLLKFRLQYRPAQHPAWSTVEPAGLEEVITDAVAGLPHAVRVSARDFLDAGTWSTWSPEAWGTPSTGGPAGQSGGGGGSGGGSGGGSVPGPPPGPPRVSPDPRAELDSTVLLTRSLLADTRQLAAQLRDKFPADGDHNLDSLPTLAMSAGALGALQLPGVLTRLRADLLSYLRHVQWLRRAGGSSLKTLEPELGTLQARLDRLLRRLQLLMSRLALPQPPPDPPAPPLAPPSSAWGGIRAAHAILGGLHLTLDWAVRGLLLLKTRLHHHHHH

percentage of αSMA-positive (activated) fibroblasts, human atrial fibroblasts + hyper IL-11 (0.2 ng/ml) [1]: 33.8% | percentage of αSMA-positive (activated) fibroblasts, human atrial fibroblasts + hyper IL-11 (0.2 ng/ml), normalised to unstimulated (=1) (fold of unstimulated) [1]: 1.28 | percentage of αSMA-positive (activated) fibroblasts, human atrial fibroblasts + TGFβ1 (human IL-11 (human)): 28.3% | percentage of αSMA-positive (activated) fibroblasts, human atrial fibroblasts + TGFβ1, normalised to unstimulated (=1) (fold of unstimulated) (human IL-11 (human)): 0.99 | percentage of αSMA-positive (activated) fibroblasts, human atrial fibroblasts + TGFβ1, relative to unstimulated (human IL-11 (human)): 0.89 times | percentage of αSMA-positive (activated) fibroblasts, mouse atrial fibroblasts + TGFβ1 (murine IL-11 (mouse) [2]): 39.4% | percentage of αSMA-positive (activated) fibroblasts, mouse atrial fibroblasts + TGFβ1, normalised to unstimulated (=1) (fold of unstimulated) (murine IL-11 (mouse) [2]): 1.24 | percentage of αSMA-positive (activated) fibroblasts, mouse atrial fibroblasts + TGFβ1 (murine IL-11 (mouse) [3]): 43% | percentage of αSMA-positive (activated) fibroblasts, mouse atrial fibroblasts + TGFβ1, normalised to unstimulated (=1) (fold of unstimulated) (murine IL-11 (mouse) [3]): 1.44
Substance: Monoclonal Mouse IgG2A anti-human IL-11 antibody, Clone #22626, Catalog No. MAB218 (R&D Systems)

Reference: patent US20180186871A1
